Assay [1] addresses Nectin-4 on the surface of tumour cell lines (UniProt Q96NY8). Put plainly: flow cytometry, PE antibody staining of MDA-MB-468 cells. On the technique in general: A flow cytometer gives signals particle by particle.
Assay [2] has the same target. Briefly: flow cytometry, PE antibody staining of NCI-H292 cells.
Assay [3] has the same target. Briefly: flow cytometry, PE antibody staining of A549 cells.
Assay [4] shares this target. Briefly: flow cytometry, PE antibody staining of NCI-H526 cells.
For assay [5] the target is unchanged. Briefly: flow cytometry, PE antibody staining of NCI-H358 cells.
The target is the same in assay [6]. Briefly: flow cytometry, PE antibody staining of HT1376 cells.
Assay [7] shares this target. Put plainly: flow cytometry, PE antibody staining of HT-29 cells.
Assay [8] shares this target. Put plainly: flow cytometry, PE antibody staining of NCI-H322 cells.
The target is the same in assay [9]. Put plainly: flow cytometry, PE antibody staining of NCI-H292 cells. This is another data set of the same source.
For assay [10] the target is unchanged. Put plainly: flow cytometry, PE antibody staining of MDA-MB-468 cells. This is another data set of the same source.
Assay [11] has the same target. Put plainly: flow cytometry, PE antibody staining of Panc02.13 cells.
The target is the same in assay [12]. Put plainly: flow cytometry, PE antibody staining of T-47D cells.
Assay [13] shares this target. Put plainly: flow cytometry, PE antibody staining of HCT-116 cells.
Assay [14] shares this target. Briefly: flow cytometry, PE antibody staining of HT1080 cells.
The target is the same in assay [15]. Briefly: flow cytometry, PE antibody staining of NCI-526 cells.
Assay [16] shares this target. Put plainly: flow cytometry, PE isotype control on NCI-526 cells.
Assay [17] has the same target. Briefly: flow cytometry, PE isotype control on HT1080 cells.
Assay [18] shares this target. Briefly: flow cytometry, PE isotype control on T-47D cells.
Assay [19] shares this target. Put plainly: flow cytometry, PE isotype control on NCI-H322 cells.
Assay [20] shares this target. Put plainly: flow cytometry, PE isotype control on NCI-H526 cells.
The target is the same in assay [21]. Put plainly: flow cytometry, PE isotype control on Panc02.13 cells.
For assay [22] the target is unchanged. Briefly: flow cytometry, PE isotype control on HT-29 cells.
The target is the same in assay [23]. Briefly: flow cytometry, PE isotype control on MDA-MB-468 cells.
Assay [24] shares this target. Briefly: flow cytometry, PE isotype control on NCI-H358 cells.
Assay [25] shares this target. Put plainly: flow cytometry, PE isotype control on MDA-MB-468 cells. The source holds these as a separate data set.
The target is the same in assay [26]. Put plainly: flow cytometry, PE isotype control on HCT-116 cells.
For assay [27] the target is unchanged. Put plainly: flow cytometry, PE isotype control on A549 cells.
For assay [28] the target is unchanged. Put plainly: flow cytometry, PE isotype control on NCI-H292 cells.
The target is the same in assay [29]. The description is as above. This is another data set of the same source.
The target is the same in assay [30]. Put plainly: flow cytometry, PE isotype control on HT1376 cells.
The target of assay [31] is Human Nectin-4 (residues Gly32-Ser349) with C-terminal FLAG tag, biotinylated (human) (UniProt Q96NY8). Put plainly: SPR (Biacore), biotinylated human Nectin-4 on streptavidin chip.
For assay [32], the target named is T1, human Nectin-4 (human, UniProt Q96NY8 32-349).
T1 construct: a Gly32-Ser349 FLAG construct is described only under the SPR assay; also called PVRL4
T1 sequence (looked up): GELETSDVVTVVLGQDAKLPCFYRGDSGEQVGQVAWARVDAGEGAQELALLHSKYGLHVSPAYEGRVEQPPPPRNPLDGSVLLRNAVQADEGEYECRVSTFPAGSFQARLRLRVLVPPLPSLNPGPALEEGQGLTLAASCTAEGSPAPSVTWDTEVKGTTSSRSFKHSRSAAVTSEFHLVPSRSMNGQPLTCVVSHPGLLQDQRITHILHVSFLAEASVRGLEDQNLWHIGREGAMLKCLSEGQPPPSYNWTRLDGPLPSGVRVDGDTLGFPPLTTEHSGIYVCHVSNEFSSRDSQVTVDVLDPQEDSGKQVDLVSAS
Briefly: FP competition, tracer SEQ ID NO 217. Here is the method: Peptides were diluted to an appropriate concentration in assay buffer as described in the direct binding assay with a maximum of 5% DMSO, then serially diluted 1 in 2. […] Measurements were conducted as for the direct binding assay, however the gain was determined prior to the first measurement. Data analysis was in Systat Sigmaplot version 12.0 where the mP values were fit to a user defined cubic equation to generate a Ki value: […]

In assay [33] the target is T2, human Nectin-4 (human), Q96NY8.
T2 chain: T1 sequence (looked up)
Put plainly: FP competition, tracer SEQ ID NO 217. The settings on record: remark: other sources report otherwise.

Assay [34] deals with T3, Human Nectin-4 (residues Gly32-Ser349) with C-terminal FLAG tag, biotinylated (human, UniProt Q96NY8 32-349, randomly biotinylated with EZ-Link Sulfo-NHS-LC-LC-Biotin).
T3 construct: range 32-349; Captured through biotin on a streptavidin CM5 chip in the SPR assay; also called PVRL4; not shown: C-terminal FLAG tag
T3 sequence (looked up): T1 sequence (looked up)
Put plainly: SPR (Biacore), biotinylated human Nectin-4 on streptavidin chip. (In general: SPR reads the build-up and loss of mass on a sensor chip optically.)

The target of assay [35] is T1, human Nectin-4. Put plainly: FP direct binding. The procedure:
Affinity of the peptides of the invention for human Nectin-4 (Ki) was determined using a fluorescence polarisation assay, in accordance with the methods disclosed in WO 2016/067035. […] Measurements were conducted on a BMG PHERAstar FS equipped with an “FP 485 520 520” optic module which excites at 485 nm and detects parallel and perpendicular emission at 520 nm. The PHERAstar FS was set at 25° C. with 200 flashes per well and a positioning delay of 0.1 second, with each well measured at 5 to 10 minute intervals for 60 minutes. […] Data was analysed using Systat Sigmaplot version 12.0. mP values were fit to a user defined quadratic equation to generate a Kd value: f=ymin+(ymax−ymin)/Lig*((x+Lig+Kd)/2-sqrt((((x+Lig+Kd)/2)\hat{ }2)-(Lig*x))).

*1 amine or outer side, *2 acyl side, *3 side chain or, on linkers, in order; H or OH if unused. Bridges are numbered along the chain shown (N, C = ends). Primed or numbered codes have the meaning given here. Where no end group is shown, it is not given here. [ ]: non-standard residue; d: D form. TATA = O=C(CC[*:1])N1CN(C(=O)CC[*:2])CN(C(=O)CC[*:3])C1; 1Nal = N[C@@H](Cc1cccc2ccccc12)C(=O)O; Glutaryl = O=C(CCCC(=O)[*:2])[*:1]; K(Fl) = lysine bearing fluorescein; Cya = N[C@@H](CS(=O)(=O)O)C(=O)O; Hyp = O=C(O)[C@@H]1C[C@@H](O)CN1; dCya = N[C@H](CS(=O)(=O)O)C(=O)O; hArg = N=C(N)NCCCC[C@H](N)C(=O)O; Cit = NC(=O)NCCC[C@H](N)C(=O)O; MMAE = monomethyl auristatin E; PABC′ = p-aminobenzylcarbamate; βAla = NCCC(=O)O; Sar = CNCC(=O)O

By Kd is commonly meant a measure of binding affinity in units of concentration. Broadly, the Ki is a measure of affinity in units of concentration, obtained from inhibition or displacement. Higher therefore signals weaker binding.

On to “PE anti-Nectin-4 antibody (R&D, catalog FAB2659P)”, for which the MFI-Panel in assay [1] was determined as 460; in [2], 149; in assay [3], 21.6; in [4] it was 91.3; in assay [5], 361; in assay [6], 803. In addition, the MFI-Panel came to 88.3 in assay [7]; 1660 in [8]; 729 in [9]; 2320 in assay [10]; 128 in assay [11]; 1810 in assay [12]. The MFI-Panel in assay [13] came out at 15.6; in assay [14], 134; in assay [15], 12.1. The Nectin-4 (percent positive cells) in assay [1] came to 97.1%; in assay [2], 71.1%; in assay [3], 1.07%; in assay [4], 0.21%; in [5] it was 90.1%; in assay [6] it was 92.4%. Besides, the Nectin-4 (percent positive cells) in assay [7] was determined as 40%; in assay [8], 99.1%; in assay [9], 97.9%; in [10] it was 99%; in assay [11] it was 51.9%; in [12] it was 99%. The Nectin-4 (percent positive cells) in assay [13] was 1.85%; in assay [14], 1.53%; in assay [15], 1.22%.

With “PE isotype control IgG2b (R&D, catalog IC0041P) (antibody)”, the MFI-Isotype in assay [16] stood at 8.33; in assay [17] it was 134; in assay [18] it was 132; in assay [19] it was 145; in [20], 104; in assay [21], 36.2. For the same molecule, the MFI-Isotype in [22] stood at 20.5; in [23], 184; in assay [24] it was 26.5; in [25], 28.9; in [26], 14.5; in [27], 20.5. Also, the MFI-Isotype in assay [28] was determined as 180; in assay [29] it was 22.9; in [30], 36.2.

In turn, Ac-CP[1Nal][dD]CM[hArg][Cya]WSTP[Hyp]WC (linker 1-5-15 via TATA (inferred)) [BCY8161] came in with a Kd in assay [31] of 0.94 nM. For the same molecule, in the assay with human Nectin-4 [32], the inhibition constant Ki worked out at 4 nM.

For {Ac-βAla}-[Sar][Sar][Sar][Sar][Sar][Sar][Sar][Sar][Sar][Sar]CP[1Nal][dD]CM[hArg][Cya]WSTP[Hyp]WC (linker 11-15-25 via TATA (inferred)) [BCY8278], the dissociation constant (Kd) in assay [31] came out at 1.92 nM.

ACPFGCMKNWAWPIWCTNK (linker 2-6-16 via TATA) [BCY7424] came in with an inhibitory constant (Ki) in [33] of 562 nM.

In assay [31], {Ac-βAla}-[Sar][Sar][Sar][Sar][Sar][Sar][Sar][Sar][Sar][Sar]CP[1Nal][dD]CM[Cya][Cya]WSTP[Hyp]WC (linker 11-15-25 via TATA (inferred)) [BCY8281] came in with a Kd of 6.11 nM.

For the molecule {MMAE-PABC′-Cit-Val-Glutaryl-βAla}-[Sar][Sar][Sar][Sar][Sar][Sar][Sar][Sar][Sar][Sar]CP[1Nal][dCya]CM[hArg][Cya]WSTP[Hyp]WC (linker 11-15-25 via TATA (inferred)) [BCY8784], in assay [31], the dissociation constant Kd came out at 0.662 nM.

B1: BCY8783 (peptide)
peptide: {MMAE-PABC′-Cit-Val-Glutaryl-βAla}-[Sar][Sar][Sar][Sar][Sar][Sar][Sar][Sar][Sar][Sar]CP[1Nal][dCya]CM[hArg]DWSTP[Hyp]WC
modifications: linker 11-15-25 via TATA
notes: also called MMAE-PABC-Cit-Val-Glutaryl-BCY8269
In [34], B1 had a Kd of 0.804 nM.

ACPFGCHTDWSWPIWCA[Sar][Sar][Sar][Sar][Sar][Sar]-{K(Fl)} (linker 2-6-16 via TATA, also called fluorescent peptide; tracer) [ACPFGCHTDWSWPIWCA-Sar6-K(Fl) (SEQ ID NO: 217)] showed a Kd with human Nectin-4 [35] of 5 nM.

As for {Ac-βAla}-[Sar][Sar][Sar][Sar][Sar][Sar][Sar][Sar][Sar][Sar]CP[1Nal][dCya]CM[hArg][Cya]WSTP[Hyp]WC (linker 11-15-25 via TATA (inferred)) [BCY8280], the Kd in [31] was found to be 2 nM.

For the origin of these results see US20210269480A1 (published 2021).
